{"source": "paper doi:10.1101/2024.02.06.578578", "molecular_target": "SkSGLc, SkSGL from Sanguibacter keddieii (KEGG locus tag, Sked_30460) with a C-terminal His6-tag (Sanguibacter keddieii)", "assay": "SEC", "data": [{"substance": "SkSGLc, SkSGL from Sanguibacter keddieii (KEGG locus tag, Sked_30460) with a C-terminal His6-tag (enzyme)", "values": [{"measurement": "stoichiometry N", "value": 2}]}]}
